Experimental data reported in US11407840B2, “Antibodies to M(H)DM2/4 and their use in diagnosing and treating cancer” (NomoCan Pharmaceuticals LLC, priority 2017, dated 2022).
Entries after “also recorded” stand apart in the source; their conditions may differ.

B1: NMC-204: mouse monoclonal antibody, IgG3 isotype, binds NMC-P2 (SEQ ID NO:2); VH SEQ ID NO:38, VL SEQ ID NO:39 (antibody, V domains shown)
VH: EVQLQESGSVLVRPGASVKLSCKASGDTLSGSWMHWAMQRPGQGLEWIGEIHLNRGTTNYNEKFKGKATVTVDTSSSTAYVDLSSLTSEDSAVYYCARSPGFAYWGQGTLVTVSA
VL: GIVMTQAAPSVPVTPGESVSISCRSSKSLLHSNGNSYLYWFLQRPGQSPQLLIYRMSNLASGVPDRFSGSGSGTAFTLRITRVEAEDVGVYYCMQHLEYPFTFGSGTKLEIK
modifications: mAb NMC-204 Heavy Chain Variable Region; mAb NMC-204 Light Chain Variable Region
B2: NMC-103: mouse monoclonal antibody, IgG1 isotype, binds NMC-P1 (SEQ ID NO:1); VH SEQ ID NO:36, VL SEQ ID NO:37 (antibody, V domains shown)
VH: EVQLQESGGGLVQPGGSLRLSCTTSGFTFTHYYMSWVRQPPGKALEWLGFIRNKAKGYTAEYSASVKGRFTISRDNSQSILYLQMNTLRPEDSATYYCARDIGDNWGQGTLVTVSS
VL: DIVMTQAAFSNPVTLGTSASISCRSSKNLLHSNGITYLYWYLQRPGQSPQLLISRVSNLASGVPNRFSGSESGTDFTLRISRVEAEDVGVYFCAQLLELPYTFGGGTKLEIK
modifications: mAb NMC-103 Heavy Chain Variable Region; mAb NMC-103 Light Chain Variable Region

Assays:
[1] = biological target: NMC-P2 peptide (SEQ ID NO:2), amino acids 15-25 of HDM2 (Homo sapiens, UniProt Q00987); assay: Peptide-ELISA, NMC-P2 peptide; format: binding; conditions: 5 μg/ml peptide dried on plate; OD 450 nm
Procedure: (§1) Peptide-ELISA Methodology: 5 μg/ml of NMC-P1, NMC-P2 or NMC-P3 peptide antigen was dried onto a 96-well ELISA plate overnight. Plates were then blocked with 5% BSA in 1× phosphate-buffered saline (PBS) (100 ? /well) for 2 hours at room temperature. Microplate wells were then washed 5 times with 300 ? of ice cold 1× PBS. Appropriate dilutions of monoclonal antibodies NMC-103, NMC-204 or NMC-303 in 1% bovine serum albumin (BSA) in PBS solution were then incubated with their corresponding peptides (NMC-P1, NMC-P2 or NMC-P3, respectively) at room temperature. After 2 hours, wells were washed 5 times with 300 ? ? ice-cold PBS/well and 100 ? secondary antibody (HRP-labeled Goat anti-Mouse F(ab′)2 H&L cross-adsorbed secondary antibody (HRP-GaM F(ab′)2), ThermoFisher, Cat. No. A24524) diluted 1:2500 to 1:5000 in PBS-1% BSA solution were added and the incubation continued at room temperature. After 1 hour, the wells were washed again 5 times with 200 ? of ice-cold PBS and 50 μiL of the TMB Substrate Solution (1-StepTM Ultra TMB-ELISA, ThermoFisher, Cat. No. 34028) were added to each well and color was allowed to develop for 30 minutes at room temperature. The reaction was stopped by addition of 50 μ ? ? of stop solution (ThermoFisher, Cat. No. SSO4) to each well and absorbance of each well was read immediately for optical density (OD) at 450 nm.

[2] = biological target: NMC-P3 peptide (SEQ ID NO:3), amino acids 475-491 of HDM2 (Homo sapiens, UniProt Q00987); assay: Peptide-ELISA, NMC-P3 peptide; format: binding; conditions: 5 μg/ml peptide dried on plate; OD 450 nm
Procedure: as §1

[3] = biological target: NMC-P1 peptide (SEQ ID NO:1), amino acids 1-15 of HDM2 (Homo sapiens, UniProt Q00987); assay: Peptide-ELISA, NMC-P1 peptide; format: binding; conditions: 5 μg/ml peptide dried on plate; OD 450 nm
Procedure: as §1

[4] = test system: Human pancreatic cancer MIAPaCa-2 cells; assay: Complement-mediated cytotoxicity (CDC) with normal human serum, PI staining; format: cell-based; conditions: antibody 30 μg/ml; NHS 1:10; 2 hours; FIG. 13
Procedure: Methodology used: Cells seeded in 24-well dishes were grown overnight at 37° C. in a humidified atmosphere supplied with 5% CO2-95% air mixture. The following day the cells were thoroughly washed with ice-cold PBS and incubated with HDM2-specific mAb NMC-103 diluted in culture medium containing 1% BSA to a final antibody concentration of 30 μg/ml. After 30 min, NHS was added to the cells at a final concentration of 1:10 in the culture medium with 1%) BSA together with 1% propidium iodide (PI) solution. Cells were then incubated with NHS for 2 hours and images were taken using EVOS FL fluorescent microscope (Life Technologies).

[5] = test system: mouse pancreatic cancer Panc-2 cells (subcutaneous tumors); assay: Panc-2 syngeneic mouse model of pancreatic cancer; format: in vivo, mouse (C57BL/6)
Procedure: Methodology used (Syngeneic Mouse Models of lung, colon and pancreatic cancer): To investigate the anti-tumor effects of HDM2-specific antibodies on lung, colon and pancreatic tumors in vivo, three well-known syngeneic mouse models of lung, colon and pancreatic cancer were used (Sharma et al, 1999, J. Immunol. 163 (9):5020-5028; McIntyre, 2015, Bioassays 37(8):909-920; Li, et al, 2015, Sci. Rep. 5:7856). Subcutaneous tumors were prepared by implanting either mouse Lewis Lung cancer LL/2 cells (2.5×10^5 cells/mouse), mouse colon cancer MC-38 cells (5×10^5 cells/mouse) or mouse pancreatic cancer Panc-2 cells (2×10^6 cells/mouse) in the right flanks of 8-week-old female C57BL/6 mice (n=6-7). The mice were returned to their respective cages after tumor implantation. From day 7 after tumor implantation, the tumor volumes were measured 2 times/week with a digital caliper. In the case of MC-38 and Panc-2 study, treatment started when the tumors reached an average of 70-80 mm^3. In the case of LL/2 study, tumor cell inoculation and treatment were initiated simultaneously. Mice were micro-chipped and registered following tumor implantation. […] All tumors were injected subcutaneously and all treatments were performed by intraperitoneal injection. Any mouse displaying prolonged adverse clinical signs, or with body weight loss exceeding 15% relative to body weight at day 0, was euthanized.
The efficacy of FIDM2-specific antibody treatment and standard of care chemotherapy was further compared. […] As shown in the tumor volume graph of FIG. 19, when tumors in mice reached approximately 70 mm^3, mice were divided into 4 groups (n=6) that received: A) isotype control mouse IgG1 (2 mg/kg); B) low dose Gemcitabine (25 mg/kg) and nab-Paclitaxel (5 mg/kg); C) NMC-103 (2 mg/kg); or D) a combination of low dose Gemcitabine (25 mg/kg), nab-Paclitaxel (5 mg/kg) and NMC-103 (2 mg/kg). All drugs were injected intraperitoneally 2 times a week for 3 weeks. After receiving the 6th dose on day 19, treatments were stopped for 2 weeks.
The anti-tumor efficacy of NMC-103 and of its combination with pancreatic cancer standard of care treatment Gemcitabine (G) and nab-Paclitaxel (nP) was further evaluated in vivo utilizing the Panc-2 syngeneic mouse model of pancreatic cancer discussed above.
All drugs were injected intraperitoneally 2 times a week for 4 weeks.
The mice were then randomly divided in 2 groups that received a single dose of: A) isotype control mouse IgG1 (10 mg/kg) or B) NMC-103 (10 mg/kg).

[6] = biological target: NMC-P1 peptide (SEQ ID NO:1) (Homo sapiens, UniProt Q00987); assay: Peptide antigen binding competition ELISA; conditions: mAb pre-incubated with peptide 1 hour at room temperature; FIG. 1D
Procedure: as §1, with “nm. […]” for “nm.”

| Molecule | binding to NMC-P2 peptide (peptide-ELISA) [1] | binding to NMC-P3 peptide (peptide-ELISA) [2] | binding to NMC-P1 peptide (peptide-ELISA) [3] | complement-mediated cytotoxicity (nuclear uptake of Propidium Iodide) [4] | tumor size 6 days after a single i.p. injection ([5]; 10 mg/kg single dose after 19 days of Gemcitabine 25 mg/kg + nab-Paclitaxel 5 mg/kg, from 438 mm^3, FIG. 30) [mm^3] | Kaplan Meier survival analysis versus chemotherapy alone or control antibody ([5]; conditions of FIG. 27, FIG. 28) | average tumor size / measurement ([5]; day 34, NMC-103 10 mg/kg, Gemcitabine 25 mg/kg, nab-Paclitaxel 5 mg/kg i.p. 2 times a week for 4 weeks, surviving mice, NMC-103 group values ascribed to scars and inflammation, FIG. 27) [mm^3] | average tumor volume ([5]; day 35, i.p. 2 times a week for 3 weeks (6th dose day 19), then 2 weeks off, antibody 2 mg/kg, Gemcitabine 25 mg/kg, nab-Paclitaxel 5 mg/kg, start approx 70 mm^3, n=6, FIG. 19) [mm^3] | tumor growth during 4 further weeks without drug treatment (to day 62) ([5]; groups C (n=8) and D (n=7) of FIG. 27) | tumor 10 days after re-challenge with Panc-2 cells ([5]; re-challenge at day 62, 2×10^6 cells/mouse s.c. left dorsal flank, previously treated mice of FIG. 27, FIG. 29) | binding of mAb to NMC-P1 peptide on the plate after pre-incubation with NMC-P1 peptide [6] | binding of mAb to NMC-P1 peptide on the plate after pre-incubation with NMC-P2 or NMC-P3 [6] |
| --- | --- | --- | --- | --- | --- | --- | --- | --- | --- | --- | --- | --- |
| B1 | bound; also recorded: strong binding | did not bind | did not bind | – | – | – | – | – | – | – | – | – |
| B2 | did not bind | – | bound; also recorded: strong binding | triggered complement-mediated cytotoxicity | 233 | significant survival benefit | 230 | 1523 | no sign of tumor growth beyond the initial scar size | no tumor was observed | abolished the binding | did not affect the binding |
